Experimental data taken from patent publication US20100022456A1 (Novo Nordisk, published 2010).

These binders were tested against T1, Ser-hPRLR(1-210) (human, UniProt P16471 25-234) (assay: SPR (Biacore T100), receptor amine-coupled to CM5 chip, ligand injected).
T1 construct: range 1-210; Amine-coupled to a CM5 chip in the SPR assay; also called soluble form of the receptor; PRL receptor
T1 sequence: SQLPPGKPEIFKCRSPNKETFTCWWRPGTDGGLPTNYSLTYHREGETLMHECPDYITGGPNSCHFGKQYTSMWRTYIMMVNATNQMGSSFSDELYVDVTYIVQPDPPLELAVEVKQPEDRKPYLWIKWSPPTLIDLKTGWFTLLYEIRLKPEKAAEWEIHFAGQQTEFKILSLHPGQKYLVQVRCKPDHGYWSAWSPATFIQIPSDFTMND
Method: The soluble form of the receptor (10 μg/ml in 10 mM sodium acetate, pH 4.0) was injected into a Biacore T100 instrument and coupled to a CM5 sensor chip by amine coupling chemistry. The immobilized level was about 500 RUs of coupled receptor. […] Regeneration was accomplished with 4.5 M MgCl₂ for 90 sec with a flow rate of 30 μl/min between runs.

Binder | Kd [nM]
Disulfide bridged PRL 12-199 Q12S E128C dimer (ligand, intermolecular disulfide bridge between Cys 128 of the two monomers, also called PRL dimer 1; 0033) SVTLRDLFDRAVVLSHYIHNLSSEMFSEFDKRYTHGRGFITKAINSCHTSSLATPEDKEQAQQMNQKDFLSLIVSILRSWNEPLYHLVTEVRGMQEAPEAILSKAVEIEEQTKRLLCGMELIVSQVHPETKENEIYPVWSGLPSLQMADEESRLSAYYNLLHCLRRDSHKIDNYLKLLKCRIIHNNNC | 6
Disulfide bridged PRL 12-199 Q12S S61A E128C dimer (ligand, intermolecular disulfide bridge between Cys 128 of the two monomers) SVTLRDLFDRAVVLSHYIHNLSSEMFSEFDKRYTHGRGFITKAINSCHTASLATPEDKEQAQQMNQKDFLSLIVSILRSWNEPLYHLVTEVRGMQEAPEAILSKAVEIEEQTKRLLCGMELIVSQVHPETKENEIYPVWSGLPSLQMADEESRLSAYYNLLHCLRRDSHKIDNYLKLLKCRIIHNNNC | 3
Disulfide bridged PRL 12-199 Q12S R125C dimer (ligand, intermolecular disulfide bridge between Cys 125 of the two monomers) SVTLRDLFDRAVVLSHYIHNLSSEMFSEFDKRYTHGRGFITKAINSCHTSSLATPEDKEQAQQMNQKDFLSLIVSILRSWNEPLYHLVTEVRGMQEAPEAILSKAVEIEEQTKCLLEGMELIVSQVHPETKENEIYPVWSGLPSLQMADEESRLSAYYNLLHCLRRDSHKIDNYLKLLKCRIIHNNNC | 20
PRL(12-199) Q12S G129R (ligand, Monomeric prolactin receptor antagonist analogue; also called PRL G129R analog) SVTLRDLFDRAVVLSHYIHNLSSEMFSEFDKRYTHGRGFITKAINSCHTSSLATPEDKEQAQQMNQKDFLSLIVSILRSWNEPLYHLVTEVRGMQEAPEAILSKAVEIEEQTKRLLERMELIVSQVHPETKENEIYPVWSGLPSLQMADEESRLSAYYNLLHCLRRDSHKIDNYLKLLKCRIIHNNNC | 30
